Assay results taken from the supplement of paper PMC9112550, “Optimization of the antimicrobial peptide Bac7 by deep mutational scanning” (BMC Biology, 2022).

What follows are sequences tested on Escherichia coli TOP10 (assay: shrunken log2 fold change of peptide-encoding DNA abundance (4.5 h post-induction vs induction); higher = less antimicrobial activity (less host growth inhibition)). Conditions: time post-induction: 4.5 h; library: site-saturation at positions 5, 18, 19, 20.
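Further: peptides expressed intracellularly from a pBAD plasmid library in pooled LB shake-flask culture, induced with 0.3% L-arabinose, DNA abundance read by NGS, three biological replicates, DESeq2 with apeglm shrinkage.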

Sequence	shrunken log2 fold change
RRIRARPPRLPRPRPRPKHEPRP	0.529
RRIRARPPRLPRPRPRPKHQPRP	0.324
RRIRARPPRLPRPRPRPKHYPRP	-0.277
RRIRARPPRLPRPRPRPKKVPRP	0.708
RRIRARPPRLPRPRPRPKMDPRP	0.384
RRIRARPPRLPRPRPRPKMEPRP	0.229
RRIRARPPRLPRPRPRPKMMPRP	0.105
RRIRARPPRLPRPRPRPKMNPRP	0.0254
RRIRARPPRLPRPRPRPKNLPRP	-0.181
RRIRARPPRLPRPRPRPKNSPRP	-0.0129
RRIRARPPRLPRPRPRPKPGPRP	0.644
RRIRARPPRLPRPRPRPKPHPRP	0.579
RRIRARPPRLPRPRPRPKPKPRP	0.936
RRIRARPPRLPRPRPRPKQAPRP	0.147
RRIRARPPRLPRPRPRPKQPPRP	0.516
RRIRARPPRLPRPRPRPKRGPRP	0.565
RRIRARPPRLPRPRPRPKSMPRP	0.0164
RRIRARPPRLPRPRPRPKWYPRP	0.056
RRIRARPPRLPRPRPRPKYEPRP	0.13
RRIRARPPRLPRPRPRPKYMPRP	-0.477
RRIRARPPRLPRPRPRPLAVPRP	0.716
RRIRARPPRLPRPRPRPLCYPRP	-0.0201
RRIRARPPRLPRPRPRPLDCPRP	0.49
RRIRARPPRLPRPRPRPLFFPRP	0.577
RRIRARPPRLPRPRPRPLFHPRP	-0.249

Sequence	shrunken log2 fold change
RRIRARPPRLPRPRPRPLGFPRP	0.644
RRIRARPPRLPRPRPRPLGTPRP	0.407
RRIRARPPRLPRPRPRPLIKPRP	0.0844
RRIRARPPRLPRPRPRPLKIPRP	-0.165
RRIRARPPRLPRPRPRPLKYPRP	-0.11
RRIRARPPRLPRPRPRPLLAPRP	0.949
RRIRARPPRLPRPRPRPLLNPRP	0.373
RRIRARPPRLPRPRPRPLMWPRP	0.481
RRIRARPPRLPRPRPRPLNSPRP	0.0404
RRIRARPPRLPRPRPRPLPAPRP	1.02
RRIRARPPRLPRPRPRPLPGPRP	0.467
RRIRARPPRLPRPRPRPLPHPRP	0.209
RRIRARPPRLPRPRPRPLQCPRP	0.049
RRIRARPPRLPRPRPRPLQNPRP	0.698
RRIRARPPRLPRPRPRPLQYPRP	0.00717
RRIRARPPRLPRPRPRPLRWPRP	0.809
RRIRARPPRLPRPRPRPLVKPRP	0.0577
RRIRARPPRLPRPRPRPMAMPRP	0.282
RRIRARPPRLPRPRPRPMAWPRP	0.662
RRIRARPPRLPRPRPRPMDFPRP	2.73
RRIRARPPRLPRPRPRPMDNPRP	-0.114
RRIRARPPRLPRPRPRPMEWPRP	0.259
RRIRARPPRLPRPRPRPMFYPRP	-0.282
RRIRARPPRLPRPRPRPMGCPRP	0.495
RRIRARPPRLPRPRPRPMGFPRP	-0.154

Sequence	shrunken log2 fold change
RRIRARPPRLPRPRPRPMGPPRP	0.161
RRIRARPPRLPRPRPRPMHTPRP	0.261
RRIRARPPRLPRPRPRPMHVPRP	-0.0248
RRIRARPPRLPRPRPRPMKIPRP	0.275
RRIRARPPRLPRPRPRPMKRPRP	0.223
RRIRARPPRLPRPRPRPMLFPRP	0.674
RRIRARPPRLPRPRPRPMMKPRP	-0.146
RRIRARPPRLPRPRPRPMMYPRP	-0.134
RRIRARPPRLPRPRPRPMNFPRP	-0.0564
RRIRARPPRLPRPRPRPMNRPRP	-0.107
RRIRARPPRLPRPRPRPMPFPRP	0.263
RRIRARPPRLPRPRPRPMQCPRP	0.0593
RRIRARPPRLPRPRPRPMQHPRP	0.642
RRIRARPPRLPRPRPRPMQKPRP	0.222
RRIRARPPRLPRPRPRPMTHPRP	0.151
RRIRARPPRLPRPRPRPMTRPRP	0.849
RRIRARPPRLPRPRPRPMVDPRP	0.299
RRIRARPPRLPRPRPRPMWAPRP	0.557
RRIRARPPRLPRPRPRPMYFPRP	-0.154
RRIRARPPRLPRPRPRPNAEPRP	0.679
RRIRARPPRLPRPRPRPNANPRP	0.49
RRIRARPPRLPRPRPRPNAPPRP	0.467
RRIRARPPRLPRPRPRPNCAPRP	0.567
RRIRARPPRLPRPRPRPNCCPRP	0.131
RRIRARPPRLPRPRPRPNCEPRP	0.186

Sequence	shrunken log2 fold change
RRIRARPPRLPRPRPRPNEYPRP	-0.284
RRIRARPPRLPRPRPRPNFEPRP	0.356
RRIRARPPRLPRPRPRPNHAPRP	0.209
RRIRARPPRLPRPRPRPNICPRP	-0.0618
RRIRARPPRLPRPRPRPNKCPRP	-0.311
RRIRARPPRLPRPRPRPNKHPRP	-0.171
RRIRARPPRLPRPRPRPNLGPRP	0.0306
RRIRARPPRLPRPRPRPNLIPRP	1.17
RRIRARPPRLPRPRPRPNMPPRP	-0.0377
RRIRARPPRLPRPRPRPNMSPRP	0.12
RRIRARPPRLPRPRPRPNMTPRP	0.147
RRIRARPPRLPRPRPRPNNIPRP	-0.537
RRIRARPPRLPRPRPRPNPIPRP	-0.19
RRIRARPPRLPRPRPRPNPQPRP	0.002
RRIRARPPRLPRPRPRPNQSPRP	0.0591
RRIRARPPRLPRPRPRPNRGPRP	0.108
RRIRARPPRLPRPRPRPNSIPRP	-0.125
RRIRARPPRLPRPRPRPNTQPRP	-0.0663
RRIRARPPRLPRPRPRPNWLPRP	0.275
RRIRARPPRLPRPRPRPNWWPRP	0.802
RRIRARPPRLPRPRPRPNYTPRP	-0.329
RRIRARPPRLPRPRPRPPDDPRP	1.2
RRIRARPPRLPRPRPRPPEDPRP	0.308
RRIRARPPRLPRPRPRPPEKPRP	0.611
RRIRARPPRLPRPRPRPPFLPRP	0.529

Sequence	shrunken log2 fold change
RRIRARPPRLPRPRPRPPGDPRP	0.868
RRIRARPPRLPRPRPRPPIAPRP	0.534
RRIRARPPRLPRPRPRPPINPRP	-0.192
RRIRARPPRLPRPRPRPPIWPRP	0.507
RRIRARPPRLPRPRPRPPMSPRP	0.414
RRIRARPPRLPRPRPRPPPAPRP	1.25
RRIRARPPRLPRPRPRPPRAPRP	0.932
RRIRARPPRLPRPRPRPPRFPRP	1.13
RRIRARPPRLPRPRPRPPSEPRP	1.17
RRIRARPPRLPRPRPRPPSLPRP	0.513
RRIRARPPRLPRPRPRPPWAPRP	0.576
RRIRARPPRLPRPRPRPPWMPRP	0.463
RRIRARPPRLPRPRPRPPWQPRP	0.675
RRIRARPPRLPRPRPRPPYWPRP	0.376
RRIRARPPRLPRPRPRPQAFPRP	-0.323
RRIRARPPRLPRPRPRPQAPPRP	0.238
RRIRARPPRLPRPRPRPQARPRP	0.233
RRIRARPPRLPRPRPRPQCKPRP	-0.077
RRIRARPPRLPRPRPRPQDNPRP	-0.0337
RRIRARPPRLPRPRPRPQDSPRP	-0.0459
RRIRARPPRLPRPRPRPQEHPRP	0.515
RRIRARPPRLPRPRPRPQEPPRP	0.744
RRIRARPPRLPRPRPRPQFTPRP	0.0535
RRIRARPPRLPRPRPRPQHLPRP	-0.0998
RRIRARPPRLPRPRPRPQKEPRP	-0.0202

Sequence	shrunken log2 fold change
RRIRARPPRLPRPRPRPQLEPRP	0.63
RRIRARPPRLPRPRPRPQLGPRP	-0.0732
RRIRARPPRLPRPRPRPQLQPRP	0.426
RRIRARPPRLPRPRPRPQLVPRP	0.308
RRIRARPPRLPRPRPRPQLWPRP	0.569
RRIRARPPRLPRPRPRPQMAPRP	0.274
RRIRARPPRLPRPRPRPQMKPRP	0.433
RRIRARPPRLPRPRPRPQPIPRP	0.16
RRIRARPPRLPRPRPRPQQAPRP	0.308
RRIRARPPRLPRPRPRPQSDPRP	0.0175
RRIRARPPRLPRPRPRPQSRPRP	-0.112
RRIRARPPRLPRPRPRPQTWPRP	0.279
RRIRARPPRLPRPRPRPQVAPRP	0.591
RRIRARPPRLPRPRPRPQVCPRP	0.0435
RRIRARPPRLPRPRPRPQVLPRP	-0.0334
RRIRARPPRLPRPRPRPQWYPRP	-0.523
RRIRARPPRLPRPRPRPQYRPRP	-0.208
RRIRARPPRLPRPRPRPRDQPRP	0.499
RRIRARPPRLPRPRPRPRDWPRP	0.577
RRIRARPPRLPRPRPRPRFIPRP	-0.259
RRIRARPPRLPRPRPRPRGIPRP	0.488
RRIRARPPRLPRPRPRPRHIPRP	-0.177
RRIRARPPRLPRPRPRPRIKPRP	-0.00918
RRIRARPPRLPRPRPRPRISPRP	0.0223
RRIRARPPRLPRPRPRPRLGPRP	0.606
